In article PMC8231827, “A Novel Protein–Protein Interaction between RSK3 and IκBα and a New Binding Inhibitor That Suppresses Breast Cancer Tumorigenesis” (Cancers, 2021):

Target: T1, pBIND-IκBα (GAL4 DNA-binding domain fusion of IκBα) (UniProt P25963 1-317)
T1 construct: source: HEK293T, transfected, mammalian two-hybrid fusion
T1 sequence (looked up): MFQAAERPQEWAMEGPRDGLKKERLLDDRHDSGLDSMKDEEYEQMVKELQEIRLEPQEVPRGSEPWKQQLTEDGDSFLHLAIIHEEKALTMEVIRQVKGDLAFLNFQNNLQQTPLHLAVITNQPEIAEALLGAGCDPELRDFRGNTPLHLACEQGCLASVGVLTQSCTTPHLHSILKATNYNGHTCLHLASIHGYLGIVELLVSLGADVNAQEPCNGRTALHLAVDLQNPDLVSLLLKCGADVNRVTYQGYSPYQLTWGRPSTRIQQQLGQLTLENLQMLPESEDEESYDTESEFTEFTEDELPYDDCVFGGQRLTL
Assay: two-hybrid; mammalian two-hybrid (CheckMate, Promega) in HEK293T: pBIND-IκBα (GAL4), pACT-RSK3 (VP16), pG5luc; firefly luciferase normalised to renilla, 24 h after transfection; also with RSK3I added 4 h after transfection
Conditions: partners not purified

fold luciferase activity over the pBind-IκBα vector-only control: ~3 fold
B1: pACT-RSK3 (VP16 activation domain fusion of RSK3) (natural protein, UniProt Q15349 1-733, looked up)
chain: MDLSMKKFAVRRFFSVYLRRKSRSKSSSLSRLEEEGVVKEIDISHHVKEGFEKADPSQFELLKVLGQGSYGKVFLVRKVKGSDAGQLYAMKVLKKATLKVRDRVRSKMERDILAEVNHPFIVKLHYAFQTEGKLYLILDFLRGGDLFTRLSKEVMFTEEDVKFYLAELALALDHLHSLGIIYRDLKPENILLDEEGHIKITDFGLSKEAIDHDKRAYSFCGTIEYMAPEVVNRRGHTQSADWWSFGVLMFEMLTGSLPFQGKDRKETMALILKAKLGMPQFLSGEAQSLLRALFKRNPCNRLGAGIDGVEEIKRHPFFVTIDWNTLYRKEIKPPFKPAVGRPEDTFHFDPEFTARTPTDSPGVPPSANAHHLFRGFSFVASSLIQEPSQQDLHKVPVHPIVQQLHGNNIHFTDGYEIKEDIGVGSYSVCKRCVHKATDTEYAVKIIDKSKRDPSEEIEILLRYGQHPNIITLKDVYDDGKFVYLVMELMRGGELLDRILRQRYFSEREASDVLCTITKTMDYLHSQGVVHRDLKPSNILYRDESGSPESIRVCDFGFAKQLRAGNGLLMTPCYTANFVAPEVLKRQGYDAACDIWSLGILLYTMLAGFTPFANGPDDTPEEILARIGSGKYALSGGNWDSISDAAKDVVSKMLHVDPHQRLTAMQVLKHPWVVNREYLSPNQLSRQDVHLVKGAMAATYFALNRTPQAPRLEPVLSSNLAQRRGMKRLTSTRL
notes: RSK3 (RPS6KA2) cloned into pACT; source: HEK293T, transfected, mammalian two-hybrid fusion
